Assays:
[1] = biological target: SARS-CoV-2 Spike protein, wild type, full length (SARS-CoV-2, UniProt P0DTC2 14-1208)
[2] = biological target: SARS-CoV-2 Spike (S) protein, wild type, full length (SARS-CoV-2, UniProt P0DTC2 14-1273)
[3] = biological target: SARS-CoV-2 Spike protein (wild type) (SARS-CoV-2, UniProt P0DTC2 14-1208)

B1: antibody 474 (antibody, V domains shown)
VH: EVQLVESGGGLVQPGGSLRLSCAASGFTFSSYWMHWVRQAPGKGLVWVSRINSDGSSTSYADSVKGRFTISRDNAKNTLYRQMNSLRAEDTAVYYCALGPLDIVGSYYYYGMDVWGQGTTVTVSS
VL: NFMLTQPHSVSESPGKTVTISCTGSSGSIASNYVQWYQQRPGSAPTTVIYEDNQRPSGVPDRFSGSIDSSSNSASLTISGLKTEDEADYYCQSYDSSNQDVVFGGGTKLTVL
Question: B1 was tested. Which “binding signal (fold over isotype control)” value [1] did it give?
Answer: 1.47 fold over isotype

B2: antibody 377 (antibody, V domains shown)
VH: EVQLVESGGGLVKPGGSLRLSCATSGFTFRTYSMNWVRQAPGKGLEWVSSITTSRNYIYYADSVRGRFTISGDNANNSLYLQMNSLRAEDTAVYYCARVRFVRDTRKPYYFDFWGQGTLVTVSS
VL: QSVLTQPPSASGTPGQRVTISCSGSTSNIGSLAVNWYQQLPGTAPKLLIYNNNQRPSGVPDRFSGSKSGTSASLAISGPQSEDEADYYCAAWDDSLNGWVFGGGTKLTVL
Question: B2 was tested. Which “fold over isotype (median fluorescence intensity)” value [2] did it give?
Answer: 0.78 fold over isotype

B3: anti-SARS-CoV-2 antibody 307 (antibody, V domains shown)
VH: QVQLVESGGGVVQPGRSLRLSCAASGFTFSSYGMHWVRQAPGKGLEWVAVIWYDGSNKYYADSVKGRFTISRDNSKNTLYLQMNSLRAEDTAVYYCAKGYTWDYYYYGMDVWGQGTTVTVSS
VL: not shown
Question: With B3 as the binder, how does the kon [3] read?
Answer: 101000 M⁻¹ s⁻¹

B4: anti-SARS-CoV-2 antibody 278 (antibody, V domains shown)
VH: QVQLVQSGAEVKKPGASVKVSCKASGYTFTSYYMHWVRQAPGQGLEWMGIINPSGGSTSYAQKFQGRVTMTRDTSTSTVYMELSSLRSEDTAVYYCARDHSNADPYYDFWSGYYTRTYYYGMDVWGQGTTVTVSS
VL: not shown
Question: B4 was tested. Which Kd [3] did it give?
Answer: 4.28 nM

From US20220356229A1 (published 2022)
